Measurements taken from publication PMC5498567.

Test system: T1, BsmT (Stenotrophomonas maltophilia ATCC 13637 (CGMCC 1.1788 in supplement)), ORF:ed0b4815
T1 sequence: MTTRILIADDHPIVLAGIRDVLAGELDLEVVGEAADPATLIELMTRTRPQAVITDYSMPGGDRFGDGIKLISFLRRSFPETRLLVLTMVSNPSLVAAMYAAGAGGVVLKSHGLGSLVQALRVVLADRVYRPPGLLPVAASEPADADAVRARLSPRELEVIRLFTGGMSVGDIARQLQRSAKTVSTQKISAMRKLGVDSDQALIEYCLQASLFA
Assay: EMSA
Settings: EMSA: 1 fmol 32P-labelled dsDNA with BsmT in reaction buffer at 28 °C; buffer composition, salt and pH not given (protein storage buffer 50 mM Tris-HCl, 0.5 mM …)

GTGCCCGGCCAATGTCGGTACAGGAAACCCCCGCTTCGGCGGGGGTTCCTTTTTTTGCCACCTGAACGGTGCCCGCGTGCAGGCTCCGGGCCGGTCGGCCAGCCGGGGATTTTAGGAAACAGCTGATTCCGCGCCGTCCGCGCCGCTTCCTAGCATCGTTGC (double strand)
binding: binds
